Two molecules from patent US20210101953A1 (ZHEJIANG K2 ONCOLOGY, published 2021) can be followed below.

The target of experiment [1] is T1, EpCAM protein on Skov3 cells (UniProt P16422 24-314, limits assumed).
T1 construct: whole, on cells; also called cellular level EpCAM; epithelial cell adhesion molecule
T1 sequence (looked up): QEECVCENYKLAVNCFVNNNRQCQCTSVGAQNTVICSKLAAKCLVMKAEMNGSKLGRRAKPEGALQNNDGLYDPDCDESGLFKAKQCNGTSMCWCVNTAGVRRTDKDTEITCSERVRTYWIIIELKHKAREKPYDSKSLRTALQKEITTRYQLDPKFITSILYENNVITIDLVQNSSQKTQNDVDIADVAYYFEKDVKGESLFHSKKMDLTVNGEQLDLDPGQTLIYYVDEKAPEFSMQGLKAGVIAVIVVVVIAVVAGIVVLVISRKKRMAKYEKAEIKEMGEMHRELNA
As to the kind of experiment: staining of fixed Skov3 cells, detected with anti-human IL-2 antibody and DAB. On the procedure:
Skov3 cells have adherent growth in a 24-pore plate for 24 hours and are fixed for 10 minutes using 4% PFA (paraformaldehyde); 5% BSA is added to block non-specific antigens; a primary antibody of anti-human IL-2 is added for incubation for 1 hour; after washing is performed 3 times with PBST, a secondary antibody is added; after incubation is performed for 1 hour, DAB (diaminobenzidine) is added for color development; and after washing is performed with PBS, photographing is performed under a bright-field microscope.

Experiment [2] has as its target T2, recombinant human EpCAM protein (Sino biologics, Product Number 10694-H08H) (human, UniProt P16422 24-265).
T2 construct: Bought protein coated on the ELISA plate at 1 ug/ml
T2 sequence (looked up): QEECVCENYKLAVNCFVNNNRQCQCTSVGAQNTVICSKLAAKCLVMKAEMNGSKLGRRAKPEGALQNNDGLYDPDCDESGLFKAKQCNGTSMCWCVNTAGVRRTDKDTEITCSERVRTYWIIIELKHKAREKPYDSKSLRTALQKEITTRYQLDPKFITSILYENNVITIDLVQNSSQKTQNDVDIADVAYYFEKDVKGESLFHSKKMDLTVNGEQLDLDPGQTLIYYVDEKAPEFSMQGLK
As to the kind of experiment: ELISA on coated recombinant human EpCAM, bound protein detected by its IL-2 part with an IL-2 ELISA kit. On the procedure:
2. […] [0069] ii. IL-2 level detection: an IL-2 ELISA commercial kit (Manufacturer: Biolegend; Product Number 431801) is adopted; the brief steps include adding a primary antibody of anti-human IL-2, incubating for 1 hour and then adding a horseradish peroxidase labeled secondary antibody to obtain a […] signal by TMB color development. [0070] iii. Data processing: a standard curve is obtained by using an IL-2 standard product included in the kit, and the IL-2 signal level corresponding to the amount of protein bound to EpCAM is calculated, which represents the level of the protein bound to EpCAM.

B1: fusion protein EPIL-2-2303301 of the anti-EpCAM single-chain antibody and IL-2 (other)
chain: APTSSSTKKTQLQLEHLLLDLQMILNGINNYKNPKLTRMLTFKFYMPKKATELKHLQCLEEELKPLEEALNLAPSKNFHLRPRDLISNINVIVLELKGSETTFMCEYADETATIVEFLNRWITFSQSTISTLTGGGGSGGGGSGGGGSGGGGSEVQLLEQSGAELVKPGASVKISCKASGYAFTNYWLGWVKQRPGHGLEWIGDLFPGSGNTHYNERFRGKATLTADKSSSTAFMQLSSLTSEDSAVYFCARLRNWDEAMDYWGQGTTVTVSSGGGGSGGGGSGGGGSELVMTQSPSYLAASPGETITINCRASKSISKYLAWYQEKPGKTNKLLIYSGSTLQSGIPSRFSGSGSGTDFTLTISSLEPEDFAMYYCQQHNEYPYTFGGGTKLEIKHHHHHH
notes: Single chain; Expressed in HEK293 cells and purified on Ni-Sepharose
With B1, the binding result in experiment [1] and in experiment [2] was “binds” each time.

B2: fusion protein EPIL-2-2303407 of the anti-EpCAM single-chain antibody and IL-2 (other)
chain: APTSSSTKKTQLQLEHLLLDLQMILNGINNYKNPKLTRMLTFKFYMPKKATELKHLQCLEEELKPLEEALNLAPSKNFHLRPRDLISNINVIVLELKGSETTFMCEYADETATIVEFLNRWITFSQSTISTLTGGGGSGGGGSGGGGSGGGGSEVQLLEQSGAELARPGASVKLSCKASGYTFTNYGLSWVKQRPGQVLEWIGEVYPRIGNAYYNEKFKGKATLTADKSSSTASMELRSLTSEDSAVYFCARRGSYDTNYDWYFDVWGQGTTVTVSSGGGGSGGGGSGGGGSELVMTQTPLSLPVSLGDQASISCRSSQSLVHSNGNTYLHWYLQKPGQSPKLLIYKVSNRFSGVPDRFSGSGSGTDFTLKISRVEAEDLGVYFCSQSTHVPYTFGGGTKLEIKHHHHHH
notes: as for B1
With B2, the binding result in experiment [1] and in experiment [2] was “binds” each time.
